Here are results for one protein from article PMC3605045, “GH1-family 6-P-β-glucosidases from human microbiome lactic acid bacteria” (Acta Crystallographica Section D: Biological Crystallography, 2013).

The data set deals with the molecule itself. The data set is described as follows: SEC; Superdex 200 16/60, 20 mM HEPES-NaOH pH 8.0, 250 mM NaCl, 2 mM DTT, proteins ~3 mg/ml, 1 ml/min, calibrated with ferritin, aldolase, conalbumin and ovalbumin; oligomeric state from the elution volume.

B1: 6-P-β-glucosidase from Streptococcus mutans UA159 (SmBgl) (enzyme)
chain: SNAMSKLPENFLWGGAVAAHQLEGGWQEGGKGISVADVMTAGRHGVAREITAGVLEGKYYPNHEAIDFYHHYKEDVKLFAEMGFKCFRTSIAWTRIFPKGDEAEPNEAGLQFYDDLFDECLKYGIEPVVTLSHFELPYHLVTEYGGFTNRKVIDFFVHFAEVCFRRYKDKVKYWMTFNEINNQANYQEDFAPFTNSGIVYKEGDDREAIMYQAAHYELVASARAVKIGHAINPNLNIGCMVAMCPIYPATCNPKDILMAQKAMQKRYYFADVHVHGFYPEHIFKYWERKAIKVDFTERDKKDLFEGTVDYIGFSYYMSFVIDAHRENNPYYDYLETEDLVKNPYVKASDWDWQIDPQGLRYALNWFTDMYHLPLFIVENGFGAIDQVEADGMVHDDYRIDYLGAHIKEMIKAVDEDGVELMGYTPWGCIDLVSAGTGEMRKRYGFIYVDKDDEGKGTLKRSPKLSFNWYKEVIASNGDDI
notes: non-natural N-terminal extension left after TEV cleavage of the His6 tag (vector pMCSG7); 6-P-β-glucosidase Bgl of Streptococcus mutans UA159, 477 residues (Met1-Ile477), amplified from genomic DNA; The SAD structure (3pn8) was solved from selenomethionine-labelled protein; source: E. coli BL21 (DE3) Magic, purified (IMAC-I, SEC on Superdex 200, TEV cleavage of the His6 tag, IMAC-II); not shown: …
On to B1, for which the stoichiometry N (as a rule, the number of molecules, sites or subunits per partner or assembly) was found to be 2.
